According to paper PMC5416816:
Like-named read-outs stand apart in the source and are kept apart here.

Key:
TIA-1 RRM23K [1] = molecular target: T1, TIA-1 RRM23K (UniProt P31483-2 93-274); experiment: fluorescence anisotropy
T1 sequence: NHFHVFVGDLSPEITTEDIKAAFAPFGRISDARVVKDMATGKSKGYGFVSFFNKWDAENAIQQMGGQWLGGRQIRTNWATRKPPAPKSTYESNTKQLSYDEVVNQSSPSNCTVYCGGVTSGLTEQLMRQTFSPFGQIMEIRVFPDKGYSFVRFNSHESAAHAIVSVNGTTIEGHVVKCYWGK

TIA-1 RRM23L [2] = molecular target: T2, TIA-1 RRM23L (UniProt P31483-2 80-292); experiment: NMR
T2 sequence: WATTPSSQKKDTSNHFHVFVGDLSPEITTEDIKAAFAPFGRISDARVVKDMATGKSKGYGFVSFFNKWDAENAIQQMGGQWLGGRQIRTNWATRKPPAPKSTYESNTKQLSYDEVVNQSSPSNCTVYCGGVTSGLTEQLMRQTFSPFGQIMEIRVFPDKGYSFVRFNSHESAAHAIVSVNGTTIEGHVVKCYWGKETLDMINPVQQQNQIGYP

TIA-1 RRM23K [3] = molecular target: T1, TIA-1 RRM23K; experiment: ITC
TIA-1 RRM2S = molecular target: T3, TIA-1 RRM2S (UniProt P31483-2 95-184); experiment: NMR
T3 sequence: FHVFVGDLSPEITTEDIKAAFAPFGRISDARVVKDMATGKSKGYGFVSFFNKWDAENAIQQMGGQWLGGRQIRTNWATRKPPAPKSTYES

TIA-1 RRM23L [4] = molecular target: T2, TIA-1 RRM23L; experiment: NMR; remark: listed apart in the source
TIA-1 RRM2L = molecular target: T4, TIA-1 RRM2L (UniProt P31483-2 80-188); experiment: fluorescence anisotropy
T4 sequence: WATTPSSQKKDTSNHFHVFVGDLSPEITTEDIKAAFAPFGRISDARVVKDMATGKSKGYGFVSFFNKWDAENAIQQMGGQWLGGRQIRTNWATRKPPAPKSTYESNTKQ

TIA-1 RRM23L [5] = molecular target: T2, TIA-1 RRM23L; experiment: fluorescence anisotropy
TIA-1 RRM23S = molecular target: T5, TIA-1 RRM23S (UniProt P31483-2 94-272); experiment: fluorescence anisotropy
T5 sequence: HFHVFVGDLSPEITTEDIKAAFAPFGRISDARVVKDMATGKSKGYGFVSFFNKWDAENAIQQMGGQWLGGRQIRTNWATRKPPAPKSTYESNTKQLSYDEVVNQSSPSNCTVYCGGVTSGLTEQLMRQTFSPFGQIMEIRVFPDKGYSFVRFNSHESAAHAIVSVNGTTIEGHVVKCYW

UUUUUACUCC (ssRNA) [UC-rich RNA]
Kd (TIA-1 RRM23K [1]): 5 ± 0.3 nM

ACTCCTTTTT (ssDNA) [CT-rich DNA]
Kd (TIA-1 RRM23K [1]): 30 ± 3 nM

TTTTTACTCC (ssDNA, 5' thiol C6 S-S) [5'thiol TC-rich DNA]
binding result (TIA-1 RRM23L [2]): binds

ACUCCUUUUU (ssRNA) [CU-rich RNA (unlabeled)]
Kd (TIA-1 RRM23K [3]): 70 ± 3 nM

TTTTT (ssDNA) [TTTTT DNA]
binding result (TIA-1 RRM2S): binds

TTTTTACTCC (ssDNA, 5' thiol C6 coupled to PROXYL) [PROXYL TC-rich DNA]
binding result (TIA-1 RRM23L [4]): binds

TTTTTACTCC (ssDNA) [TC-rich DNA]
Kd (TIA-1 RRM23K [1]): 8 ± 1 nM

UUUUUACUCC (ssRNA) [UC-rich RNA (unlabeled)]
Kd (TIA-1 RRM23K [3]): 12 ± 2 nM

ACUCCUUUUU (ssRNA) [CU-rich RNA]
Kd (TIA-1 RRM2L): 9100 ± 2000 nM | Kd (TIA-1 RRM23L [5]): 130 ± 7 nM | Kd (TIA-1 RRM23K [1]): 130 ± 10 nM | Kd (TIA-1 RRM23S): 6600 ± 700 nM
